Read-outs that look alike come from different tables or passages of the source.
Columns and labels:
[1] = Tsuzuki et al. 2005; cited from earlier work
[2] = Thermostability: relative bioluminescence activity after 30 min incubation; type: physicochemical; conditions: CLZ-f
Description: Thermostability of aequorin and redquorin mutant with increased affinity for calcium were compared to wt-aequorin (FIG. 5). The purified photoprotein samples were reconstituted with CLZ-f (as detailed earlier) and let to calibrate at room temperature (20-24° C.) for 20 min before taken the first measurement of total counts using saturating calcium solution (50 mM Tris-HCl, 100 mM CaCl2, pH 7.5). Samples were then incubated at two different temperatures (30 to 40° C.) for 30 min, and let equilibrate at room temperature for 15 minbefore taken the second measurement of total counts in the sample. The relative bioluminescence activity at each temperature was calculated by the ratio 2nd counts (at target T° C.)/1st counts (at initial T° C.) multiplied by 100.
Table 6 highlights the analysis of thermostability data obtained at two temperatures for aequorin and redquorin mutants, as well as CitA and GA. The values represent the degree of change in luminescence activity compared to wt-aeq, at each temperature. All values are relative to wt-aequorin (at each temperature) and were calculated by dividing the obtained data for each mutant/variant by the data for wt-aeq (as reference). The data were taken from FIG. 5.

[3] = Ca2+ sensitivity curves of reconstituted photoproteins (L/Lmax vs free Ca2+); type: biochemical; conditions: for EC50: read-out: Calcium sensitivity, EC50
Description: For in vitro reconstitution, the purified and concentrated samples of apoaequorin and redquorin mutant proteins were buffer-exchanged to 50 mM Tris-HCl (pH 7.5), 150 mM NaCl, 10 mM EGTA, 5 mM ß-mercaptoethanol, supplemented with 5 μM CLZ-f or CLZ-native and incubated overnight at 4° C., in the dark. The next day, samples were passed through molecular weight cut-offs (AmiconUitra MWCO, 10K and 50K, from Millipore), then resuspended in Zero-Ca^2+ buffer (30 mM MOPS, 100 mM KCl and 10 mM EGTA, pH 7.2) for calcium affinity, emission decay kinetics and spectral analysis assays. As for in cellulo reconstitution, HEK cells transiently expressing the proteins of apoaequorin and aporedquorin mutants were washed twice with Hank's Balanced Salt Solution (HBSS) and incubated in the dark, with 4 μM of the desired CLZ diluted in OptiMEM I medium (Gibco), for 2-3h at 37° C. and 5% CO2. Cells were washed once and maintained in HBSS at 37° C. for 20 min before the experiment.
Functional Analysis of Aequorin Mutants and Fusions Ca^2+ Sensitivity Curves.
Purified and reconstituted samples with CLZ-f or CLZ-native already buffered-exchanged to zero-calcium buffer ensured to minimize calcium contamination that could interfere with the measurements. Fifteen microliter aliquot of photoprotein samples (concentration range, 50 to 90 ng/μl) was placed in a home-made luminometer and mixed with 300 μl solution containing the desired concentration of free-Ca^2+. The solutions of EGTA-buffered with varying free-Ca^2+ prepared according to the manufacturer instruction for the kit (Molecular Probes, Invitrogen). Integration of the luminescence emission (per second) was measured for 20 seconds (background) before injecting a solution with known [free-Ca^2+] and lasted until stable or decaying signal (at final-phase) was obtained. At this point, 400 μl of a saturating calcium solution (30 mM MOPS, 100 mM CaCl2, pH 7.2) was rapidly injected (less than 30 ms) and light integration continued until all aequorin had been consumed and light intensity had gone back to background signal. Luminescence intensity (L) at different [Ca^2+] was taken as the response peak value in case of decaying signal or as the stable value in case of stable emission. Lmax, was measured by integrating all remaining luminescence signal from that moment (L value) to the end of the experiment. The EC50 values were extracted from a sigmoidal dose-response fit (variable slope) using GraphPad Prism software.

[4] = background art; cited from earlier work
endogenous P2Y2 receptor = experiment: Assay of activation of endogenous P2Y2 receptor by ATP in CHO cells stably expressing photoproteins; type: cell-based; conditions: CHO cells stably expressing the sensor; for EC50: ATP dose-response, read-out: EC50 (half-maximal effective concentration of ATP for P2Y2 activation)
Description: Stably prepared CHO cells were loaded with 5 μM coelenterazine in 130 mM NaCl, 5 mM KCl, 1 mM MgCl2, 2 mM CaCl2, 5 mM NaHCO3, 20 mM N-(2-hydroxyethyl) piperazine-N′-ethanesulfonic acid (HEPES), pH 7.4 for 4 h at ambient temperature.
To produce stable CHO cell lines, the cells transfected with GA and Redquorin variant plasmids were seeded on six-well plates and grown in the same medium with addition of Geneticin sulfate (G418) (Gibco, UK) at 1 mg/ml under the same conditions with replacement of the medium by fresh medium every 2 days. After 7-10 days of selection, CHO cells were transferred into a medium without antibiotic. To select clones with the highest bioluminescence activity, one run of limiting dilution was performed. CHO cells after G418 selection were seeded on 96-well plates (approximately 0.5 cells per well) and grown in DMEM/F12 medium supplemented with 10% fetal calf serum at 37° C., 5% CO2 for up to 80-90% confluence. Before the bioluminescence measurements, the plates with monoclones of CHO cells expressing the corresponding photoprotein were duplicated and grown for up to 90-100% confluence. Then, the medium was removed and cells were loaded with coelenterazine, and bioluminescence in each well was measured according to the procedure described earlier. As a result, the CHO cell clones with the highest bioluminescence activity were selected.
Assay of Activation of Endogenous P2Y2 Receptor in CHO Cells
The CHO cell lines stably expressing each photoprotein were used in assay of activation of endogenous P2Y2 receptor by ATP. The day before the measurements, the corresponding cells were seeded on 96-well plates with DMEM/F12 medium supplemented with 10% fetal calf serum and were grown at 37° C. with 5% CO2 for up to 90-100% confluence. Then, the medium was replaced by 100 μl of coelenterazine solution per well (5 μM coelenterazine in 130 mM NaCl, 5 mM KCl, 1 mM MgCl2, 2 mM CaCl2, 5 mM NaHCO3, 20 mM HEPES, pH7.4) and the cells were incubated at 23° C. for 4 h. Emission from photoproteins in the cells was measured using a Mithras LB 940 plate luminometer. The ATP was injected at a given concentration to trigger an intracellular Ca^2+ response in the cells and the measurement started immediately. The bioluminescence was integrated over a time interval of 0.05 s for 30 s.

[5] = CLZ-f, L/Lmax compared to Aeq-wt
[6] = CLZ-f, redquorin series, CitA, GA
[7] = CLZ-native, redquorin series, CitA, GA

| Molecule | emission half-life (t½) [1] [s] | Thermostability, luminescence activity relative to wt-aequorin ([2]; 30° C. for 30 min) | Thermostability, luminescence activity relative to wt-aequorin ([2]; 40° C. for 30 min) | Relative intensity at pCa 6.5 [3, 5] | Relative intensity at pCa 7.2 [3, 5] | EC50 ([3]; aequorin proteins reconstituted with CLZ-f, sigmoidal curve fit, mean ± SD, n at least 3) [nM] | affinity of aequorin for calcium [4] | EC50 [3, 6] [nM] | Relative intensity at pCa 6.5 ([3]; CLZ-f, relative to Redq) | Relative intensity at pCa 7.2 ([3]; CLZ-f, relative to Redq) | EC50 [3, 7] [nM] | Relative intensity at pCa 6.5 ([3]; CLZ-native, relative to Redq) | Relative intensity at pCa 7.2 ([3]; CLZ-native, relative to Redq) | [ATP] DL (detection limit) (endogenous P2Y2 receptor) [nM] | EC50 (endogenous P2Y2 receptor) [nM] |
| --- | --- | --- | --- | --- | --- | --- | --- | --- | --- | --- | --- | --- | --- | --- | --- |
| E35G: aequorin mutation from random mutagenesis reported by Tsuzuki et al. 2005 (protein) SKLTSDFDNPRWIGRHKHMFNFLDVNHNGKISLDGMVYKASDIVINNLGATPEQAKRHKDAVEAFFGGAGMKYGVETDWPAYIEGWKKLATDELEKYAKNEPTLIRIWGDALFDIVDKDQNGAITLDEWKAYTKAAGIIQSSEDCEETFRVCDIDESGQLDVDEMTRQHLGFWYTMDPACEKLYGGAVP | 40 |  |  |  |  |  |  |  |  |  |  |  |  |  |  |
| Aeq-wt: wild-type aequorin: apoaequorin of Aequorea victoria (SEQ ID NO:1) reconstituted with coelenterazine (protein, listed as Aequorea aequorea, reconstituted with coelenterazine; SITE (1)..(189) wild-type aequorin) SKLTSDFDNPRWIGRHKHMFNFLDVNHNGKISLDEMVYKASDIVINNLGATPEQAKRHKDAVEAFFGGAGMKYGVETDWPAYIEGWKKLATDELEKYAKNEPTLIRIWGDALFDIVDKDQNGAITLDEWKAYTKAAGIIQSSEDCEETFRVCDIDESGQLDVDEMTRQHLGFWYTMDPACEKLYGGAVP | 0.8 | 1.00 | 1.00 | 1 | 1 | 659 ± 23 | around 1 μM |  |  |  |  |  |  |  |  |
| V44A: aequorin mutant, valine 44 replaced by alanine (protein) SKLTSDFDNPRWIGRHKHMFNFLDVNHNGKISLDEMVYKASDIAINNLGATPEQAKRHKDAVEAFFGGAGMKYGVETDWPAYIEGWKKLATDELEKYAKNEPTLIRIWGDALFDIVDKDQNGAITLDEWKAYTKAAGIIQSSEDCEETFRVCDIDESGQLDVDEMTRQHLGFWYTMDPACEKLYGGAVP | 34 |  |  |  |  |  |  |  |  |  |  |  |  |  |  |
| Redq/QT + AD: aporedquorin mutant Q159T + A123D (SEQ ID NO:25) (protein, mutant aequorin) MVSKGEEVIKEFMRFKVRMEGSMNGHEFEIEGEGEGRPYEGTQTAKLKVTKGGPLPFAWDILSPQFMYGSKAYVKHPADIPDYKKLSFPEGFKWERVMNFEDGGLVTVTQDSSLQDGTLIYKVKMRGTNFPPDGPVMQKKTMGWEASTERLYPRDGVLKGEIHQALKLKDGGHYLVEFKTIYMAKKPVQLPGYYYVDTKLDITSHNEDYTIVEQYERSEGRHHLFLGHGTGSTGSGSSGTASSEDNNMAVIKEFMRFKVRMEGSMNGHEFEIEGEGEGRPYEGTQTAKLKVTKGGPLPFAWDILSPQFMYGSKAYVKHPADIPDYKKLSFPEGFKWERVMNFEDGGLVTVTQDSSLQDGTLIYKVKMRGTNFPPDGPVMQKKTMGWEASTERLYPRDGVLKGEIHQALKLKDGGHYLVEFKTIYMAKKPVQLPGYYYVDTKLDITSHNEDYTIVEQYERSEGRHHLFLSGFDNPRWIGRHKHMFNFLDVNHNGKISLDEMVYKASDIVINNLGATPEQAKRHKDAVEAFFGGAGMKYGVETDWPAYIEGWKKLATDELEKYAKNEPTLIRIWGDALFDIVDKDQNGDITLDEWKAYTKAAGIIQSSEDCEETFRVCDIDESGTLDVDEMTRQHLGFWYTMDPACEKLYGGAVP |  | 0.94 | 1.00 |  |  |  |  | 336 ± 11 | 14.4 | 7.4 | 577 ± 33 | 14.4 | 10.0 | 1230 ± 51 | 3100 ± 400 |
| Redq/QD + AT: aporedquorin mutant Q159D + A179T (SEQ ID NO:23) (protein, mutant aequorin) MVSKGEEVIKEFMRFKVRMEGSMNGHEFEIEGEGEGRPYEGTQTAKLKVTKGGPLPFAWDILSPQFMYGSKAYVKHPADIPDYKKLSFPEGFKWERVMNFEDGGLVTVTQDSSLQDGTLIYKVKMRGTNFPPDGPVMQKKTMGWEASTERLYPRDGVLKGEIHQALKLKDGGHYLVEFKTIYMAKKPVQLPGYYYVDTKLDITSHNEDYTIVEQYERSEGRHHLFLGHGTGSTGSGSSGTASSEDNNMAVIKEFMRFKVRMEGSMNGHEFEIEGEGEGRPYEGTQTAKLKVTKGGPLPFAWDILSPQFMYGSKAYVKHPADIPDYKKLSFPEGFKWERVMNFEDGGLVTVTQDSSLQDGTLIYKVKMRGTNFPPDGPVMQKKTMGWEASTERLYPRDGVLKGEIHQALKLKDGGHYLVEFKTIYMAKKPVQLPGYYYVDTKLDITSHNEDYTIVEQYERSEGRHHLFLSGFDNPRWIGRHKHMFNFLDVNHNGKISLDEMVYKASDIVINNLGATPEQAKRHKDAVEAFFGGAGMKYGVETDWPAYIEGWKKLATDELEKYAKNEPTLIRIWGDALFDIVDKDQNGAITLDEWKAYTKAAGIIQSSEDCEETFRVCDIDESGDLDVDEMTRQHLGFWYTMDPTCEKLYGGAVP |  | 1.00 | 1.03 |  |  |  |  | 252 ± 40 | 58.5 | 48.3 | 515 ± 20 | 32.1 | 24.5 | 562 ± 20 | 2000 |
